Measured values published in publication doi:10.1101/2022.11.30.518485 (bioRxiv, 2022).

Tests used:
[1] = biological target: Abeta in AD (senile plaques) (Homo sapiens, UniProt P05067); assay: immunostaining of cells or tissue
[2] = biological target: tau pathology in PSP and AD (Homo sapiens, UniProt P10636); assay: immunostaining of cells or tissue
Sequence of tau pathology in PSP and AD (P10636 whole entry): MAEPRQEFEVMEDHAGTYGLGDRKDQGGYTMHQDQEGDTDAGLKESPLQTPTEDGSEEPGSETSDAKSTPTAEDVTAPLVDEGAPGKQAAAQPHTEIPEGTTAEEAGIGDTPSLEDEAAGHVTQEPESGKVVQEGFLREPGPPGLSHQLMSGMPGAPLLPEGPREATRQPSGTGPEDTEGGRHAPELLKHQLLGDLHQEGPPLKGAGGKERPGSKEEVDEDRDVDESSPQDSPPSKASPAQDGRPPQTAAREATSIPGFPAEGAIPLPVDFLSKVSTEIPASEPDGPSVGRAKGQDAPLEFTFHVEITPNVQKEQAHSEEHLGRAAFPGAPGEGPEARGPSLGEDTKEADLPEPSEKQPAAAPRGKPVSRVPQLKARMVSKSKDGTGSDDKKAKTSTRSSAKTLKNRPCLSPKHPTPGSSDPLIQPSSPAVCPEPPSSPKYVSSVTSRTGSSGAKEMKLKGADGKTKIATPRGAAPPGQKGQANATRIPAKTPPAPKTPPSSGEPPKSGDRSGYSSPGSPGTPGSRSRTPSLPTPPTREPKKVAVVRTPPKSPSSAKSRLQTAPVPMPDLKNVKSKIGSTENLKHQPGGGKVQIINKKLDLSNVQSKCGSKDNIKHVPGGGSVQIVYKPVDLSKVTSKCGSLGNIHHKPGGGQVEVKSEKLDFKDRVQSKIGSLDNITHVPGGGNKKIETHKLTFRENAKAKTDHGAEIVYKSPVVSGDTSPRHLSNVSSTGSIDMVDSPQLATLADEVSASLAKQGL

binding result [1]: no binding (tested: 1:10000 dilution)
binding result [2]: no binding (tested: 1:10000 dilution)
B1: 306C7B3 (native IgG purified from the hybridoma clone) (antibody, V domains shown)
VH: EVQLVESGGGLVKPGGSRKLSCAASGFTFSDHGMHWVRQAPEKGLEWVAYISSGSSTIYYADTVKGRFTISRDNAKNTLFLQMTSLRSEDTAMYYCARSYIPYWGQGTLVTVSA
VL: DVVMTQTPLSLPVSLGDQASISCRSSQSLVHSNGNTYLHWYLQKPGQSPKLLIYKVSNRFSGVPDRFSGSGSGTDFTLKISRVEAEDLGVYFCSQSTHVPWTFGGGTKLEIK
